Laboratory results as given in US20170115280A1.
pKd: −log10 of the molar value.

Experiments:
[1] = target: reconstituted nascent HDL (rHDL) particle made with isolated human apoA-I (human) (UniProt P02647); test: SPR (BIAcore 3000), rHDL immobilized on CM5 chip, rPON1 500-2000 nM in flow
[2] = target: reconstituted nascent HDL (rHDL) particle made with isolated human apoA-I (human) (UniProt P02647); test: SPR (BIAcore 3000), rHDL immobilized on CM5 chip, apparent Kd, 1:1 binding with drifting baseline
[3] = target: reconstituted nascent HDL (rHDL) particle made with isolated human apoA-I (human) (UniProt P02647); test: SPR, rHDL immobilized on CM5 chip

Sequence of reconstituted nascent HDL (rHDL) particle made with isolated human apoA-I (human) (P02647 25-267 limits assumed): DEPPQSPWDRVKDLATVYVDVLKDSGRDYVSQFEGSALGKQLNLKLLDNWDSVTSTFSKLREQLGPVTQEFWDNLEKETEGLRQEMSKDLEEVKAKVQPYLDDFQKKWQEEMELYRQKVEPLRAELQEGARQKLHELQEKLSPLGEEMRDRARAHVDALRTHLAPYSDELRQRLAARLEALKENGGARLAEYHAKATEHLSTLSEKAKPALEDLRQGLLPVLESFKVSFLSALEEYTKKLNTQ

| Substance | koff [1] | kon [1] | pKd [2] | fold less binding capacity compared with rPON1 WT [3] |
| --- | --- | --- | --- | --- |
| rPON1 pan E mutant (Leu9→Glu9, Tyr185→Glu185 and Tyr293→Glu293) with C-terminal His8 tag (enzyme) | 0.05 s⁻¹ | 850 M⁻¹ s⁻¹ | 4.23 | – |
| rPON1 pan K mutant (Leu9→Lys9, Tyr185→Lys185 and Tyr293→Lys293) with C-terminal His8 tag (enzyme) | 6e-05 s⁻¹ | – | – | 1000 fold |
| recombinant paraoxonase 1 (PON1) variant G3C9, His-tagged (rPON1 WT) (enzyme) | 8.5e-07 s⁻¹ | 1200 M⁻¹ s⁻¹ | 9.15 | – |
